± gives the uncertainty stated by the source.
Assay: amyloid nucleation score (Sup35N fusion, yeast selection) (log enrichment); library NNK3; higher = more nucleation; inactive = no reads after selection
Outline: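 Plasmid inserts were Illumina-sequenced at input and output from psi-negative yeast expressing Sup35N fused to peptides of 20 random codons. The yeast were induced with 100 μM copper sulfate for 24 hours and grown 7 days at 30°C on medium lacking adenine and uracil, and sequences with under 100 input reads were excluded. Nucleation score is the DiMSum log enrichment of output over input reads, centred on the mode score of non-aggregating sequences.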

Substance | amyloid nucleation score
FVVELCVDPTFKLYD | inactive
DSMCRYV | 0.893 ± 0.12
ILFVAGIETFSALSFRWTGV | inactive
VMIDRWRNASNWIMFISHYR | -0.611 ± 0.98
MCSIIRCRFNMFCLMYVNSV | 0.584 ± 0.13
PYIRNYSCSGSNQYLWDTSD | inactive
LLERDYR | inactive
KAQEHPA | inactive
VVMCGCSSSRMGLGPVYRTF | inactive
SQTLYLGARVNRMRYVFSAC | inactive
FVYSMKSCSYRDLGLNSYLL | inactive
TSTRSEAFRVVVTLPVAVNW | inactive
VSPVGSSRWWHDLHVSLETS | inactive
YYFLLIGSW | inactive
LVYTA | inactive
ASTQRMYMSLLVDGWVTIRL | inactive
SAYFAVY | inactive
RIWPSGSC | inactive
QKESYHY | inactive
RNKLFLINWLFYNCMTWAFH | inactive
DNYMRILGLSYPGDFISNFW | inactive
LQTMTDSFKRTQCLCSYKCT | inactive
KLTGQDLVVGNAFATVVYVE | inactive
WGTVMTLSCVALEVYFSLRV | inactive

Substance | amyloid nucleation score
NVRVGILQR | inactive
RLFSFAIFHENTMLGNCCTM | 2.44 ± 0.063
SLVMAEVITPIGLSFCSNYT | inactive
HHLNSYFRISFI | inactive
CCNYFLNIIYVVQV | 3.14 ± 0.058
MRQIAQRCRSGNAACIGSLG | 0.664 ± 0.23
YMWKVVDCSPVVSTS | -0.352 ± 1.3
YVTTMFEITRGRSWYSRSLG | 0.611 ± 0.21
REVPT | inactive
RDCSSAIYKCTWCMSF | inactive
LCRRLQTGMAYHMVSSYFNW | inactive
PVVQCNLFFVMVYTLGIRCV | -0.579 ± 0.98
LDNVR | inactive
RRWPTPVCFNEG | inactive
DFMWLKGLNPSTLSLPWD | inactive
INWTRLRSRSEVWDTGRVWT | inactive
SLQKWWDSLTHNLMVVTKHG | inactive
ILTNTIRGKVDSLRLFKTSW | inactive
ECLMDGSTAFSMMFFYNYML | inactive
GDNICQNVFTDGKVDAFFLT | inactive
LNEYNINDFTLFSCTFIGNV | 2.73 ± 0.081
HGFEIDTRTDSRQAVNCMCC | inactive
AYALALCLRE | inactive
RYGSNTSLVANCAGPRPGLV | inactive

Substance | amyloid nucleation score
SWEFPTDKSYMSCREPENPM | inactive
FLTAKKSEFERTLEFRLWWC | inactive
WFNQHTECHGRSVHLAAHNV | -0.14 ± 1
RYPGVFTTQSA | inactive
QVPLCHMAGKQNLVSRAQTC | inactive
YSVPCSWWTLQLGILPLSRR | inactive
ICQWDVKMPRCATG | inactive
YDRPSVVRTWRTREKAVSGP | inactive
SNDHKITD | inactive
DLYCMPLAAVLFGGGC | inactive
VLIRWRYEAYLSHCGSPCAS | inactive
AYMLGITQNNGNHLNSSRRR | inactive
YADRRIFSVS | inactive
DDRVVPVLYQTCSAVRR | inactive
KSLTDHVNRSFLMVGVWMVK | inactive
NLNWGTLSTRFYCVEDS | inactive
YMSSYRKEDCGQWLDEWPMA | inactive
FLNIGYLNSRYNFLRNSVLV | inactive
SFCIIY | inactive
FVTFGYQWYRRVAGALGCLE | 0.37 ± 0.57
MNRNLLFASTLTFNFVLFVW | inactive
IRNIRFVFLILIDWSSRNSV | inactive
SYLNVLPNFLRLTAICVVFR | inactive
SWYVAFFNNSGFSCMGVFVG | inactive

Substance | amyloid nucleation score
LVVLLFVFI | inactive
FCATRTKVGLHGYASCEDCG | -0.249 ± 0.48
LLFSGHYVGAYLGYVFPICS | inactive
SDLQVIWFMFFCSTLVRDWI | inactive
PKALVFNLEDDLQGIWSVT | 2.1 ± 0.079
SSAPEQRF | inactive
LYDISGPM | inactive
FTSKKLLCLDKPFNIGDCGY | inactive
YCRCLCMLYG | inactive
FISDRQSASYPWVQFWPE | 0.206 ± 0.7
FYVTMTAASFPDFRHCVVND | 0.01 ± 0.57
TKVNL | inactive
TCLRG | inactive
CFLGVSNMHIGWFGVR | 0.838 ± 0.12
SRMSGVVGIAKV | inactive
RPPMDEICSNFRSRTLNQSK | inactive
SFRHKYYEHRPTIWDMDCDL | inactive
CVAAV | inactive
CENYRMGYRNVRVSFAPPFK | inactive
FAVDFLCHVS | inactive
IEVGYITWKSARVWATNSSH | inactive
SGWYWICLKHRGQVDHPLST | inactive
SRTFVRECKWGFVCRYKVWV | inactive
VSIFCCQPSSVIAVDISDHS | 2.93 ± 0.068

Substance | amyloid nucleation score
TRFARA | inactive
QYTFVGDLMVDLITKTVMLM | inactive
KMSNGDTNDANVFIVRDSWL | inactive
AGESEISVRMEKSHSGVASR | -0.436 ± 1.7
TFKHTFNNVHCSGAFTGSQL | 0.161 ± 0.25
GIIVLLVPETQCRCFGDLIR | inactive
IVLTFYIYRNSYCSAV | 0.89 ± 0.092
YGVWCSYKFVYSCDPYDSAG | 0.557 ± 0.15
CSLYNLDRVTWTG | 0.219 ± 0.41
VSSSVVYTFVMSSLLGVDNE | inactive
LREVRTAVSLGQMGRGLQA | inactive
DCYKRSVMLKAARSWVNRSL | inactive
APGIFPMSGMISYSLRV | inactive
FDFESRKLVVGICGCSQAGL | inactive
NFSCSSRNRWMCMDVGKVCR | -0.287 ± 0.34
CNKYMKVCLGMGKVQTKNGV | inactive
ICYSNDSLYMLLESS | inactive
IVLSNVRVGIACGDLC | 0.182 ± 0.44
NLYMGRPKRRVIGYLVACFA | inactive
YPSSPGH | inactive
FVSSYNIENV | inactive
HWIISYQAGCFHLNTFKIMY | inactive

— the supplement of paper PMC12042874
